In patent US20180057579A1 (Pfizer, published 2018):

T1: CD32b (Fc gamma receptor) (UniProt P31994 43-217)
T1 sequence (looked up): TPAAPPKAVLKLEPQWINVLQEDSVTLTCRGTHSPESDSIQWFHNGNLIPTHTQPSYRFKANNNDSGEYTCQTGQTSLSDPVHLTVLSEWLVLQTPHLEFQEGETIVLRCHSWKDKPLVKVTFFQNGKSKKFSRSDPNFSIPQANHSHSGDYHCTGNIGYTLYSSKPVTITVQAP

T2: CD32a-131H (Fc gamma receptor) (UniProt P12318 34-217)
T2 construct: The 131H allotype is as printed
T2 sequence (looked up): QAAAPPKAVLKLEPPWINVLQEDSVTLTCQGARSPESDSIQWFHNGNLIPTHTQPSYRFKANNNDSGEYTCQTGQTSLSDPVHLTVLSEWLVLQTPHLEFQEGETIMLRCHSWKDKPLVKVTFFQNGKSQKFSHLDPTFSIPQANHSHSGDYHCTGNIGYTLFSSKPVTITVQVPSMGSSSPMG


Legend:
[1] = molecular target: T1, CD32b (Fc gamma receptor); test: SPR (Biacore T200), OGD1.0.0 captured on biotin-GDF-8 on an SA chip, receptor flowed
[2] = molecular target: T3, Growth and differentiation factor-8 (GDF-8), mature human (human, UniProt O14793 267-375, conjugated to biotin in the ActRIIB ELISA and in the Fc gamma receptor SPR (site not stated)); test: cell-based or functional assay
[3] = molecular target: T3, Growth and differentiation factor-8 …; test: competition ELISA (GDF-8 / ActRIIB-Fc)
[4] = molecular target: T3, Growth and differentiation factor-8 …; test: SPR (BIACORE 3000), antibody captured on protein A, GDF-8 flowed, 1:1 Langmuir fit
[5] = molecular target: T3, Growth and differentiation factor-8 …; test: SPR
CD64 (Fc gamma receptor) = CD64 (Fc gamma receptor) (UniProt P12314 16-288, limits assumed); test: SPR (Biacore T200), OGD1.0.0 captured on biotin-GDF-8 on an SA chip, receptor flowed, single-cycle kinetics
[6] = molecular target: T2, CD32a-131H (Fc gamma receptor); test: as above
[7] = molecular target: T4, CD16a-158V (Fc gamma receptor) (UniProt P08637 17-208); test: as above
T4 construct: The 158V allotype is as printed

[8] = molecular target: T3, Growth and differentiation factor-8 …; test: competition ELISA: antibody inhibits biotin-GDF-8 (10 ng/ml) binding to coated ActRIIB-Fc
[9] = molecular target: T3, Growth and differentiation factor-8 …; test: cell-based or functional assay; remark: listed apart in the source
[10] = molecular target: T3, Growth and differentiation factor-8 …; test: SPR (BIACORE 3000), antibody captured with anti-mouse IgG, GDF-8 flowed, 1:1 Langmuir fit
[11] = molecular target: T3, Growth and differentiation factor-8 …; test: SPR (BIACORE 3000), captured antibody, GDF-8 flowed, 1:1 Langmuir fit
[12] = molecular target: T3, Growth and differentiation factor-8 …; test: competition ELISA

Binder	IC50 by reporter gene assay compared to OGD1.0.0 [2]	IC50 by ELISA compared to OGD1.0.0 [3]	Kd [5] [nM]	IC50 [8] [nM]	CAGA EC50 [9] [nM]	also measured
OGD1.0.0 humanized anti-GDF-8 antibody (VH0 and VL0) (antibody, human IgG1, kappa, also called OGD1.0.0 antibody) heavy: EVQLLESGGGLVQPGGSLRLSCAASGFTFSSYAMSWVRQAPGKGLEWVSTISSGGSYTSYPDSVKGRFTISRDNSKNTLYLQMNSLRAEDTAVYYCAKQDYAMNYWGQGTLVTVSSASTKGPSVFPLAPSSKSTSGGTAALGCLVKDYFPEPVTVSWNSGALTSGVHTFPAVLQSSGLYSLSSVVTVPSSSLGTQTYICNVNHKPSNTKVDKKVEPKSCDKTHTCPPCPAPEAAGAPSVFLFPPKPKDTLMISRTPEVTCVVVDVSHEDPEVKFNWYVDGVEVHNAKTKPREEQYNSTYRVVSVLTVLHQDWLNGKEYKCKVSNKALPAPIEKTISKAKGQPREPQVYTLPPSREEMTKNQVSLTCLVKGFYPSDIAVEWESNGQPENNYKTTPPVLDSDGSFFLYSKLTVDKSRWQQGNVFSCSVMHEALHNHYTQKSLSLSPGK light: DIQMTQSPSSLSASVGDRVTITCKASQDVSTAVAWYQQKPGKAPKLLIYSASYRYTGVPSRFSGSGSGTDFTLTISSLQPEDFATYYCQQHYSTPWTFGGGTKVEIKRTVAAPSVFIFPPSDEQLKSGTASVVCLLNNFYPREAKVQWKVDNALQSGNSQESVTEQDSKDSTYSLSSTLTLSKADYEKHKVYACEVTHQGLSSPVTKSFNRGEC	1 fold of OGD1.0.0	1 fold of OGD1.0.0	0.00259	0.14	27.3	Kd [1]: > 21000 nM; Kd [4]: 0.00259 nM; binding result (CD64 (Fc gamma receptor)): no binding (tested: 0-270 nM); binding result [6]: no binding (tested: 0-21 µM); binding result [7]: no binding (tested: 0-21 µM)
Murine anti-GDF-8 monoclonal antibody (parental murine antibody) (antibody, V domains shown, also called mouse anti-GDF-8 antibody) VH: EVQLVESGGGLVKPGGSLKLSCAASGFTFSSYAMSWVRQTPEKRLEWVATISSGGSYTSYPDSVKGRFTISRDNAKNTLYLQMSSLRSEDTAMYYCARQDYAMNYWGQGTSVTVSS VL: DIEMTQSHKFMSTSVGDRVSITCKASQDVSTAVAWYQQKPGQSPKLLLYSASYRYTGVPDRFTGSGSGTDFTFTISSVQAEDLAVYYCQQHYSTPWTFGGGTKLEIK	–	–	–	0.165	33.5	Kd [10]: 0.0218 nM
Chimeric mouse-human anti-GDF-8 antibody (murine variable domains and human constant domains) (antibody, human IgG1, V domains shown, also called Chimeric antibody) VH: EVQLVESGGGLVKPGGSLKLSCAASGFTFSSYAMSWVRQTPEKRLEWVATISSGGSYTSYPDSVKGRFTISRDNAKNTLYLQMSSLRSEDTAMYYCARQDYAMNYWGQGTSVTVSS VL: DIEMTQSHKFMSTSVGDRVSITCKASQDVSTAVAWYQQKPGQSPKLLLYSASYRYTGVPDRFTGSGSGTDFTFTISSVQAEDLAVYYCQQHYSTPWTFGGGTKLEIK	–	–	–	0.165	24.2	Kd [11]: 0.00299 nM
OGD1.0.2 humanized anti-GDF-8 antibody (VH0 and VL2) (antibody, V domains shown, Intact antibody produced in COS-1 cells) VH: EVQLLESGGGLVQPGGSLRLSCAASGFTFSSYAMSWVRQAPGKGLEWVSTISSGGSYTSYPDSVKGRFTISRDNSKNTLYLQMNSLRAEDTAVYYCAKQDYAMNYWGQGTLVTVSS VL: DIQMTQSPSSLSASVGDRVTITCKASQDVSTAVAWYQQKPGKAPKLLIYAASSLQSGVPSRFSGSGSGTDFTLTISSLQPEDFATYYCQQHYSTPWTFGGGTKVEIK	1.03 fold of OGD1.0.0	0.91 fold of OGD1.0.0	0.00146	–	–	–
OGD1.0.3 humanized anti-GDF-8 antibody (VH0 and VL3) (antibody, V domains shown) VH: EVQLLESGGGLVQPGGSLRLSCAASGFTFSSYAMSWVRQAPGKGLEWVSTISSGGSYTSYPDSVKGRFTISRDNSKNTLYLQMNSLRAEDTAVYYCAKQDYAMNYWGQGTLVTVSS VL: DIQMTQSPSSLSASVGDRVTITCRASQSISTALNWYQQKPGKAPKLLIYSASSLQSGVPSRFSGSGSGTDFTLTISSLQPEDFATYYCQQSYSTPWTFGGGTKVEIK	0.85 fold of OGD1.0.0	0.96 fold of OGD1.0.0	0.00317	–	–	–
OGD1.3.0 humanized anti-GDF-8 antibody (VH3 and VL0) (antibody, V domains shown) VH: EVQLLESGGGLVQPGGSLRLSCAASGFTFSSYAMSWVRQAPGKGLEWVSAISSSGGYTYYADSVKGRFTISRDNSKNTLYLQMNSLRAEDTAVYYCAKQDYAMNYWGQGTLVTVSS VL: DIQMTQSPSSLSASVGDRVTITCKASQDVSTAVAWYQQKPGKAPKLLIYSASYRYTGVPSRFSGSGSGTDFTLTISSLQPEDFATYYCQQHYSTPWTFGGGTKVEIK	–	–	–	–	–	binding result [12]: binds

Now from value to binder, other results behind:

IC50 by reporter gene assay compared to OGD1.0.0 [2]	IC50 by ELISA compared to OGD1.0.0 [3]	Kd [5] [nM]	IC50 [8] [nM]	CAGA EC50 [9] [nM]	Binder	also measured
–	–	–	0.14	26	OGD1.1.1 humanized anti-GDF-8 antibody (VH1 and VL1) (antibody, human IgG1, kappa) heavy: EVQLLESGGGLVQPGGSLRLSCAASGFTFSSYAMSWVRQAPGKGLEWVSTISSGGSYTSYPDSVKGRFTISRDNSKNTLYLQMNSLRAEDTAVYYCAKQDYAMNYWGQGTMVTVSSASTKGPSVFPLAPSSKSTSGGTAALGCLVKDYFPEPVTVSWNSGALTSGVHTFPAVLQSSGLYSLSSVVTVPSSSLGTQTYICNVNHKPSNTKVDKKVEPKSCDKTHTCPPCPAPEAAGAPSVFLFPPKPKDTLMISRTPEVTCVVVDVSHEDPEVKFNWYVDGVEVHNAKTKPREEQYNSTYRVVSVLTVLHQDWLNGKEYKCKVSNKALPAPIEKTISKAKGQPREPQVYTLPPSREEMTKNQVSLTCLVKGFYPSDIAVEWESNGQPENNYKTTPPVLDSDGSFFLYSKLTVDKSRWQQGNVFSCSVMHEALHNHYTQKSLSLSPGK light: DIQMTQSPSSLSASVGDRVTITCKASQDVSTAVAWYQQKPGKAPKLLIYSASYRYTGVPSRFSGSGSGTDFTLTISSLQPEDFATYYCQQHYSTPWTFGQGTKVEIKRTVAAPSVFIFPPSDEQLKSGTASVVCLLNNFYPREAKVQWKVDNALQSGNSQESVTEQDSKDSTYSLSSTLTLSKADYEKHKVYACEVTHQGLSSPVTKSFNRGEC	Kd [4]: 0.00725 nM
1.54 fold of OGD1.0.0	0.61 fold of OGD1.0.0	0.00246	–	–	OGD1.0.4 humanized anti-GDF-8 antibody (VH0 and VL4) (antibody, V domains shown, VL4 is VL3 with S50A) VH: EVQLLESGGGLVQPGGSLRLSCAASGFTFSSYAMSWVRQAPGKGLEWVSTISSGGSYTSYPDSVKGRFTISRDNSKNTLYLQMNSLRAEDTAVYYCAKQDYAMNYWGQGTLVTVSS VL: not shown	–
7.5 fold of OGD1.0.0	1.71 fold of OGD1.0.0	0.284	–	–	OGD1.4.0 humanized anti-GDF-8 antibody (VH4 and VL0) (antibody, V domains shown, VH4 carries M99F and N101D in CDR3) VH: EVQLLESGGGLVQPGGSLRLSCAASGFTFSSYAMSWVRQAPGKGLEWVSTISSGGSYTSYPDSVKGRFTISRDNSKNTLYLQMNSLRAEDTAVYYCAKQDYAFDYWGQGTLVTVSS VL: DIQMTQSPSSLSASVGDRVTITCKASQDVSTAVAWYQQKPGKAPKLLIYSASYRYTGVPSRFSGSGSGTDFTLTISSLQPEDFATYYCQQHYSTPWTFGGGTKVEIK	–
–	5.94 fold of OGD1.0.0	0.057	–	–	OGD1.0.5 humanized anti-GDF-8 antibody (VH0 and VL5) (antibody, V domains shown, VL5 is VL3 with W96L) VH: EVQLLESGGGLVQPGGSLRLSCAASGFTFSSYAMSWVRQAPGKGLEWVSTISSGGSYTSYPDSVKGRFTISRDNSKNTLYLQMNSLRAEDTAVYYCAKQDYAMNYWGQGTLVTVSS VL: DIQMTQSPSSLSASVGDRVTITCRASQSISTALNWYQQKPGKAPKLLIYSASSLQSGVPSRFSGSGSGTDFTLTISSLQPEDFATYYCQQSYSTPLTFGGGTKVEIK	–
